Measurements as given in article PMC3672139, “Aptamer Selection Based on G4-Forming Promoter Region”.

Columns and labels:
[1] = biological target: VEGF165 (human, UniProt P15692-4 27-191); experiment: SPR; 10 mM Tris-HCl, 150 mM NaCl, 5 mM KCl, pH 7.4; EMSA room temperature 30 min, 12% PAGE in TBE; SPR 25 C (RB1 SPR with 650 mM NaCl); details: protein: recombinant, chain copies: 2
[2] = biological target: PDGF-AA (human, UniProt P04085 87-211); experiment: as above; details: protein: recombinant, chain copies: 2
[3] = biological target: c-KIT intracellular domain (human, UniProt P10721 544-976); experiment: EMSA; 10 mM Tris-HCl, 150 mM NaCl, 5 mM KCl, pH 7.4; EMSA room temperature 30 min, 12% PAGE in TBE; SPR 25 C (RB1 SPR with 650 mM NaCl); details: protein: recombinant; label: 5'-FITC; G4
[4] = biological target: VEGF121 (human, UniProt P15692-9 27-147); experiment: as above; details: protein: recombinant, chain copies: 2
[5] = biological target: VEGF165, human (Homo sapiens (Human), UniProt P15692 27-191); experiment: SPR; 10 mM Tris-HCl pH 7.4, 150 mM NaCl, 5 mM KCl, 25 C; protein amine-coupled on CM5; details: chain copies: 2
[6] = biological target: VEGF121, human (Homo sapiens (Human), UniProt P15692 27-147); experiment: EMSA; 2.6 uM VEGF121; details: chain copies: 2
[7] = biological target: PDGF-AA, human (Homo sapiens (Human), UniProt P04085 87-211); experiment: SPR; 10 mM Tris-HCl pH 7.4, 150 mM NaCl, 5 mM KCl, 25 C; protein amine-coupled on CM5; details: chain copies: 2
[8] = biological target: T1, RB1, human (Homo sapiens (Human), UniProt P06400); experiment: SPR; 10 mM Tris-HCl pH 7.4, 650 mM NaCl, 5 mM KCl, 25 C; DNA on SA chip, Scatchard; details: label: 5'-biotin
T1 sequence: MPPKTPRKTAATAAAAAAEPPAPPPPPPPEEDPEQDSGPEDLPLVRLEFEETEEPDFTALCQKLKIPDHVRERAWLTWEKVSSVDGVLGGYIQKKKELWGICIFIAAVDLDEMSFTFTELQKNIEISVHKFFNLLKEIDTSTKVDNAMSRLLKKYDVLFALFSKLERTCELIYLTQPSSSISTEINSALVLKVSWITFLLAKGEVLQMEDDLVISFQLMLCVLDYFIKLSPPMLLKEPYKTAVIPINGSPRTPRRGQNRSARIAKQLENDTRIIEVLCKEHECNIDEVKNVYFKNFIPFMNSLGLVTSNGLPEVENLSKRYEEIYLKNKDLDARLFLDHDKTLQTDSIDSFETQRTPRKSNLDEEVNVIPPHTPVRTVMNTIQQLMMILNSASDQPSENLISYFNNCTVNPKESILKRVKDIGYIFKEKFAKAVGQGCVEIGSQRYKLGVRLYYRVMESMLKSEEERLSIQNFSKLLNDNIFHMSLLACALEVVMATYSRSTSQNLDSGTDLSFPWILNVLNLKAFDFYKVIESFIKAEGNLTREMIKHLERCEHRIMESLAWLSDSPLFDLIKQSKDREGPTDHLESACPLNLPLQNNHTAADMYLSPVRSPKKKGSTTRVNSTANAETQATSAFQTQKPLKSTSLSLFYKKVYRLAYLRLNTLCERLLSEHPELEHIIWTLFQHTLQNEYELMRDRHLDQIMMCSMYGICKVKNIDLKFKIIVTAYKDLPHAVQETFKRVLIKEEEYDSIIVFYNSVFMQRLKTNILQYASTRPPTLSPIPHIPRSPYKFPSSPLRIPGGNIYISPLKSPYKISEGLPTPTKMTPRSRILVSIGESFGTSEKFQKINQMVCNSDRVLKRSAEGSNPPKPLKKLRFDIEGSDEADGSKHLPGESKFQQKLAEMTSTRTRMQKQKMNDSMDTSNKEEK

[9] = label: 5'-TAMRA (gel shift), parallel G4, monomeric and multimeric bands
[10] = label: 5'-FITC (gel shift), none (SPR), parallel G4
[11] = label: none (SPR), not expected to form G4
[12] = label: 5'-TAMRA (gel shift), 5'-biotin (SPR to RB1), antiparallel G4

Sequence of VEGF165 (P15692 other isoform, or with tags, fused parts or gaps): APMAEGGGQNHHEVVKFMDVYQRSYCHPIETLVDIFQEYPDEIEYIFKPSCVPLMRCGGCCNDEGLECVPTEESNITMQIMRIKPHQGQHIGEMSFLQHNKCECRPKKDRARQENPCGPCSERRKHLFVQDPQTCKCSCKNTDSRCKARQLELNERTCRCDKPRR
Sequence of VEGF121, human (P15692 other isoform, or with tags, fused parts or gaps): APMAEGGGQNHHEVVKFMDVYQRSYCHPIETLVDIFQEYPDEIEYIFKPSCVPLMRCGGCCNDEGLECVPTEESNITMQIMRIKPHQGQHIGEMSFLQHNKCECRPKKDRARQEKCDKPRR
Sequence of c-KIT intracellular domain (P10721 544-976): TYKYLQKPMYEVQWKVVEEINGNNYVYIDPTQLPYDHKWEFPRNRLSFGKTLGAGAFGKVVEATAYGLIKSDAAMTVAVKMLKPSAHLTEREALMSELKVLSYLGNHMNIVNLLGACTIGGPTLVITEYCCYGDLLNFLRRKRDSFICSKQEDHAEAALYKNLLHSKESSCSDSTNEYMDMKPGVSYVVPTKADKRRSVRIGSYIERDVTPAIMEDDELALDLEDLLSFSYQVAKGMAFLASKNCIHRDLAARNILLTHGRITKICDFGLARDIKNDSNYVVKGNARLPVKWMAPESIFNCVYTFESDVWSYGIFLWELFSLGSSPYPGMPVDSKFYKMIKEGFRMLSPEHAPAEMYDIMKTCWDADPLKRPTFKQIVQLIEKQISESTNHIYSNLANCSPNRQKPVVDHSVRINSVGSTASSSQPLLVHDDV

GGTTGGTGTGGTTGG (structured_DNA) [TBA (15-mer thrombin-binding aptamer)]: no binding ([1]; label: none, G4); no binding ([2]; label: none, G4).

AGGGAGGGCGCTGGGAGGAGGG (structured_DNA) [c-KIT G4-2]: no binding [3].

For GGAGGCGGGGGGGGGGGGGCGGGGGCGGGGGCGGGGGAGGGGCGCGGC (structured_DNA), the binding result [4, 9] was “no binding” and the Kd [1, 9] was 10 nM.

GGAGGCGGGGGGGGGGGGGCGGGGGCGGGGGCGGGGGAGGGGCGCGGC (structured_DNA, G-quadruplex (promoter-derived)) was tested, and the Kd [5] was 10 nM and the binding result ([6]; label: TAMRA) was “no binding”.

GGTTGGTGTGGTTGG (structured_DNA, G-quadruplex) [TBA]: no binding [5]; no binding [7].

With GGGGCGGGCCGGGGGCGGGGTCCCGGCGGGGCGG (structured_DNA) the binding result [4, 10] was “no binding”, the Kd [1, 10] was 170 nM and the binding result [2, 10] was “no binding”.

GGGGCGGGCCGGGGGCGGGGTCCCGGCGGGGCGG (structured_DNA, G-quadruplex (promoter-derived)): no binding [7]; no binding ([6]; label: FITC).

CGTTTTGTTTTGGGCGGC (ssDNA) [RB1 G4 mutant]: no binding [8].

With CGGGGGGTTTTGGGCGGC (structured_DNA, G-quadruplex (promoter-derived)) the Kd [5] was 300 nM, the binding result [7] was “no binding” and the binding result ([6]; label: TAMRA) was “no binding”.

GGAGGCTTTTTTTTTTTTTCTTTTTCTTTTTCTTTTTATTTTCGCGGC (ssDNA) [PDGFA G4 Mut.]: no binding [2, 11].

CGGGCGGGCGCGAGGGAGGGG (structured_DNA) [c-KIT G4-1]: no binding [3].

GTTTCTTTCCGGTTTCGTTTTCCCGGCGGGGCGG (ssDNA) [VEGFA G4 Mut.]: no binding [1, 11].

With CGGGGGGTTTTGGGCGGC (structured_DNA) the binding result [4, 12] was “no binding”, the Kd [1, 12] was 300 nM and the binding result [2, 12] was “no binding”.
